Publication PMC13125535, “Reprogramming of bacterial virulence by lysine acetylation” (Nature Communications, 2026)

Biological target: the molecule itself
Test: SEC; analytical SEC on a calibrated Superdex 200 10/300 GL column; 25 mM Tris-HCl pH 7.5, 150 mM NaCl, 2 mM β-mercaptoethanol; 1.0–2.0 mg/mL protein, 100 µL applied; tetramer to monomers

B1: SnCE1_(104-310) C256A (non-acetylated) (domain or fragment)
chain: GEKDRFLIDERNWLNNQHLGLYSLFLQEKYGPEVFFPFGGWTYVFPGLTDRFFKEDSYHILDVRAKRIKSFLDYKSITYPLFIGGNHWGLLFIDREKRTVEYYDSKINYGNYEEGLQGIKDVAAKFTKYDPGEKPYTYLEKIKKKLQPDGYQAGPWALYFLEHRLENPEVDFNQLDLNEAQNMIAKYRFAVRDKLLELQKNGNTLYC
notes: SnCE1, Simkania negevensis, UniProt F8L4W9, residues 104-310; Not acetylated; no proteolytic processing seen for this truncated protein; not shown: GST, N-terminal, cleaved
- stoichiometry N: 4

B2: SnCE1 C256A AcK209 (domain or fragment)
chain: SLTSKAICRYSLSSVESIQPKTQVKAIEPKGEKDRFLIDERNWLNNQHLGLYSLFLQEKYGPEVFFPFGGWTYVFPGLTDRFFKEDSYHILDVRAKRIKSFLDYKSITYPLFIGGNHWGLLFIDREKRTVEYYDSKINYGNYEEGLQGIKDVAAKFTKYDPGEKPYTYLEKIKKKLQPDGYQAGPWALYFLEHRLENPEVDFNQLDLNEAQNMIAKYRFAVRDKLLELQKNGNTLYC
modifications: acetyl-lysine at 209
notes: SnCE1, Simkania negevensis, UniProt F8L4W9
- stoichiometry N: 4
